Assay results published in the supplement of paper PMC10567573.

B1: BTBD1 (parent)
chain: YGSIHGPTDYQVNIQIIEYEKKQT
B2: KLHL20 (parent)
chain: YQDMIYAVGGRDDTTELSSAERYN

Variants of: B1
Assay: protein stability index of a GFP-peptide fusion (GPS, HEK-293T) (PSI 1-6); higher = more stable
Conditions: c terminus: a fixed tail appended
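Also: lentivirally expressed fusions sorted by FACS into six bins by GFP to DsRed ratio, PSI derived from sequencing read proportions per bin multiplied by bin number.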

Protein stability index, by site and new letter:
T8: N 2.94, W 3.36, V 2.06, R 2.57, E 2.88, D 3.66, S 3.11, C 2.25, I 2.06, Y 2.56, G 2.44, A 2.71, H 2.38, L 1.91, P 2.97, F 2.17, M 1.74, Q 3.08, K 2.16
Y10: K 4.24, N 4.48, R 4.12, P 4.31, I 2.44, S 4.16, T 4.1, G 3.79, Q 4.33, D 4.3, C 2.96, H 3.77, V 2.77, W 2.05, F 2.43, A 4.06, L 2.87, E 4.55, M 3.63
S3: G 2.88, F 2.64, L 2.94, C 2.06, V 2.57, K 3.17, A 2.85, M 2.87, E 3, P 3.06, Q 3.33, N 1.6, W 2.17, I 2.24, Y 2.15, D 3.13, R 2.88, H 3.09, T 3.08
I4: W 2.5, N 2.93, E 3.45, L 2.94, Y 2.94, S 2.45, M 2.41, D 4.08, F 2.21, Q 3.06, K 2.24, V 2.63, H 2.79, T 2.81, R 1.93, G 2.16, C 2.32, A 2.95, P 3.1
I14: H 3.48, F 2.92, M 3.37, L 3.36, G 3.32, K 3.75, C 3.3, P 3.77, E 3.46, D 3.75, A 3.47, N 3.98
G2: S 2.45, I 1.7, F 2.48, A 1.62, V 3.34, Y 2.03, D 3.7, T 1.9, P 2.81, W 2.5, R 2.5, Q 2.59, H 2.36, K 3.06, M 2.83, N 3.28, E 3.59, L 2.08, C 2.56
G6: R 2.88, S 3.15, N 3.4, M 2.85, Q 3.26, V 2.21, T 3.19, E 3.54, I 2.17, C 2.81, K 3, Y 2.44, D 3.61, L 2.6, W 2.71, P 3.18, H 3, A 2.96, F 1.63
Q11: H 2.48, Y 2.24, D 3.52, L 2.83, R 2.32, N 2.39, T 1.55, G 2.57, M 1.93, P 3.5, C 1.54, E 2.66, K 2.15, V 1.42, I 1.68, S 2.34, W 2.67, A 2.26
H5: I 2.67, R 2.98, T 2.52, F 1.99, D 3.09, P 3.29, N 2.13, M 2.73, G 3.06, C 2.41, E 3.71, K 3.72, V 2.04, S 3.26, W 2.09, Y 1.98, L 2.88, Q 2.78, A 3.31
N13: K 2.57, V 1.87, P 3.23, T 1.82, F 1.39, Q 2.69, W 1.85, L 2.22, A 2.4, M 2.74, E 2.79, G 3.34, R 2, C 1.7, H 2.48, D 2.59, S 2.15, Y 2.19, I 1.83
D9: S 1.65, Q 2.18, A 3.12, K 1.82, N 1.98, T 2.42, R 2.65, V 2.24, P 2.44, C 1.94, Y 2.08, H 1.63, G 1.75, L 3.37, I 4.42, E 1.95, M 2.23
P7: H 2.65, E 3.33, L 2.21, V 2.63, Y 1.75, G 2.87, F 2.47, C 2, R 1.75, K 2.49, N 2.84, D 3.29, Q 2.65, S 2.76, A 2.6, M 2.31, I 2.44, T 2.73, W 4.06
V12: W 2.32, K 3.44, L 3.28, P 2.95, R 3.66, A 3.6, M 2.93, F 2.71, Q 4.19, G 3.52, I 2.72, Y 2.87, D 4.04, T 3.72, N 4.15, E 4.08, S 3.98, H 4.09, C 2.77
Y1: P 3.67, Q 3.8, N 3.32, A 3.35, I 2.92, H 3.45, C 3.4, S 3.79, W 2.67, K 3.15, E 3.93, G 3.66, F 2.52, V 3.84, M 3.73, T 3.83, D 3.93, R 3.44, L 2.94

Variants of: B2
Assay: as above
Conditions: c terminus: a fixed tail appended

Protein stability index, by site and new letter:
R22: C 2.52, D 2.49, E 2.53, K 2.08, A 2.45, M 2.03, Y 2.63, W 2.56, L 2.15, Q 2.77, I 2.16, S 2.48, H 2.38, G 2.87, N 1.92, F 2.48, T 2.18, P 2.69, V 2.52
Y23: F 2.13, Q 3.05, M 2.29, A 1.82, T 2.37, S 2.54, V 2.93, R 2.77, D 2.98, P 2.72, E 2.77, C 2.32, I 1.93, G 2.18, N 2.59, W 3, L 2.25, K 2.74, H 2.64
E21: G 1.94, L 1.95, Y 1.69, R 1.75, C 2.23, W 1.58, T 2.11, M 2.75, I 1.95, Q 1.95, K 2.37, S 1.92, N 1.89, H 2.04, D 2.29, F 2.28, P 2.55, V 2.09, A 2
N24: Y 2.31, L 2.69, R 2.7, V 1.75, W 1.93, P 2.42, G 2.99, C 2.02, E 2.66, H 2.44, F 2.41, Q 2.48, T 1.85, S 2.24, I 2.02, D 3.62, M 2.08, A 1.75, K 2.16
A20: W 1.66, Y 1.78
